Test results reported in paper PMC3436905.
Read-outs that look alike come from different tables or passages of the source.

Columns and labels:
[1] = target: surface vimentin (human (endogenous in HeLa and HT-29)) (UniProt P08670); assay: flow cytometry on cells
[2] = target: surface vimentin (human (endogenous in HeLa and HT-29)) (UniProt P08670); assay: flow cytometry on cells; remark: listed apart in the source

Sequence of UniProt P08670 (P08670 whole entry): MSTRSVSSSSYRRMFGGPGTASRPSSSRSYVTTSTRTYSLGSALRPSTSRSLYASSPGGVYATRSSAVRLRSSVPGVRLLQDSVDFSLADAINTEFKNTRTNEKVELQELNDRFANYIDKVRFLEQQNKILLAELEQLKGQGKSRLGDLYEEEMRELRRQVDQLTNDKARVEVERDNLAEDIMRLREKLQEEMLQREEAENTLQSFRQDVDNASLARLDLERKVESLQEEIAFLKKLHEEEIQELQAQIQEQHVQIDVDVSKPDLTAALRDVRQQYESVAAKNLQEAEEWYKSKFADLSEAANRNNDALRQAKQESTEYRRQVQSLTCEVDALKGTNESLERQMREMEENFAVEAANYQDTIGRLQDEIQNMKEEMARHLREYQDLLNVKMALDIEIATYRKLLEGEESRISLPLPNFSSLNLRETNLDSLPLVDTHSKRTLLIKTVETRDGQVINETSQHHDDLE

Substance “Cowpea mosaic virus nanoparticles (complex)” has a percent of cells positive for CPMV uptake [1] of 38% and a percent of cells positive for CPMV uptake [2] of 17%.
